Data taken from patent US20170233781.

Legend:
[1] = tested on: LPETA sorting signal (SEQ ID NO:29)
[2] = target: T1, ENLYFQS substrate (SEQ ID NO:8)
T1 chain: ENLYFQS

[3] = target: T2, ENLYFES substrate (SEQ ID NO:1)
T2 chain: ENLYFES

[4] = target: T3, RLAPR substrate (SEQ ID NO:45)
T3 chain: RLAPR

[5] = target: T4, LRPRA substrate (SEQ ID NO:37)
T4 chain: LRPRA

[6] = target: T5, LLCKR substrate (SEQ ID NO:50)
T5 chain: LLCKR

[7] = target: T6, RLSRR substrate (SEQ ID NO:41)
T6 chain: RLSRR

[8] = target: T7, VARRD substrate (SEQ ID NO:14)
T7 chain: VARRD

RRRRR substrate = target: T8, RRRRR substrate
T8 chain: RRRRR

[9] = target: T9, LQPRA substrate (SEQ ID NO:51)
T9 chain: LQPRA

[10] = target: T10, ALARR substrate (SEQ ID NO:36)
T10 chain: ALARR

[11] = target: T11, RLLPR substrate (SEQ ID NO:40)
T11 chain: RLLPR

[12] = target: T12, RLTPR substrate (SEQ ID NO:31)
T12 chain: RLTPR

[13] = target: T13, PLVPR substrate (SEQ ID NO:48)
T13 chain: PLVPR

[14] = target: T14, PLRPR substrate (SEQ ID NO:44)
T14 chain: PLRPR

[15] = target: T15, SLRRR substrate (SEQ ID NO:49)
T15 chain: SLRRR

[16] = target: T16, SPAKR substrate (SEQ ID NO:32)
T16 chain: SPAKR

[17] = target: T17, RLRPR substrate (SEQ ID NO:39)
T17 chain: RLRPR

[18] = target: T18, ALLPR substrate (SEQ ID NO:46)
T18 chain: ALLPR

[19] = target: T19, PLLAR substrate (SEQ ID NO:47)
T19 chain: PLLAR

[20] = target: T20, PLLRR substrate (SEQ ID NO:43)
T20 chain: PLLRR

[21] = target: T21, ALSRR substrate (SEQ ID NO:38)
T21 chain: ALSRR

[22] = target: T22, PLLPR substrate (SEQ ID NO:42)
T22 chain: PLLPR

SrtA from S. pyogenes (residues 81-249)
sortase transpeptidation in yeast ER (FACS, HA-FITC against FLAG-PE) [1]: A positive signal resulted in an increase in HA-FITC signal and decrease in FLAG-PE signal (FIG. 6B), in comparison to the negative control (FIG. 6A)

B1: wild-type tobacco etch mosaic virus protease (TEV-P) (protein)
chain: GESLFKGPRDYNPISSTICHLTNESDGHTTSLYGIGFGPFIITNKHLFRRNNGTLLVQSLHGVFKVKNTTTLQQHLIDGRDMIIIRMPKDFPPFPQKLKFREPQREERICLVTTNFQTKSMSSMVSDTSCTFPSSDGIFWKHWIQTKDGQCGSPLVSTRDGFIVGIHSASNFTNTNNYFTSVPKNFMELLTNQEAQQWVSGWRLNADSVLWGGHKVFMSKPEEPFQPVKEATQLMNELVYSQFEHDEL
enrichment of cleaved substrate sequences after FACS sorting (YESS with NextGen sequencing) [2]: significant enrichments of the ENLYFQS (SEQ ID NO:8) sequence were observed for the wide-type TEV-P

B2: engineered TEV protease variant TEV-PE10 (S120R, D148R, T173A, N177K, M218I) (protein)
chain: GESLFKGPRDYNPISSTICHLTNESDGHTTSLYGIGFGPFIITNKHLFRRNNGTLLVQSLHGVFKVKNTTTLQQHLIDGRDMIIIRMPKDFPPFPQKLKFREPQREERICLVTTNFQTKRMSSMVSDTSCTFPSSDGIFWKHWIQTKRGQCGSPLVSTRDGFIVGIHSASNFANTNKYFTSVPKNFMELLTNQEAQQWVSGWRLNADSVLWGGHKVFISKPEEPFQPVKEATQLMNELVYSQFEHDEL
enrichment of cleaved substrate sequences after FACS sorting (YESS with NextGen sequencing) [3]: significant enrichments of the ... ENLYFES (SEQ ID NO:1) sequence for the engineered TEV-PE10

B3: Kex2 convertase (endogenous, yeast secretory pathway of Saccharomyces cerevisiae EBY100) (protein)
chain: APPMDSSLLPVKEAEDKLSINDPLFERQWHLVNPSFPGSDINVLDLWYNNITGAGVVAAIVDDGLDYENEDLKDNFCAEGSWDFNDNTNLPKPRLSDDYHGTRCAGEIAAKKGNNFCGVGVGYNAKISGIRILSGDITTEDEAASLIYGLDVNDIYSCSWGPADDGRHLQGPSDLVKKALVKGVTEGRDSKGAIYVFASGNGGTRGDNCNYDGYTNSIYSITIGAIDHKDLHPPYSEGCSAVMAVTYSSGSGEYIHSSDINGRCSNSHGGTSAAAPLAAGVYTLLLEANPNLTWRDVQYLSILSAVGLEKNADGDWRDSAMGKKYSHRYGFGKIDAHKLIEMSKTWENVNAQTWFYLPTLYVSQSTNSTEETLESVITISEKSLQDANFKRIEHVTVTVDIDTEIRGTTTVDLISPAGIISNLGVVRPRDVSSEGFKDWTFMSVAHWGENGVGDWKIKVKTTENGHRIDFHSWRLKLFGESIDSSKTETFVFGNDKEEVEPAATESTVSQYSASSTSISISATSTSSISIGVETSAIPQTTTASTDPDSDPNTPKKLSSPRQAMHYFLTIFLIGATFLVLYFMFFMKSRRRIRRSRAETYEFDIIDTDSEYDSTLDNGTSGITEPEEVEDFDFDLSDEDHLASLSSSENGDAEHTIDSVLTNENPFSDPIKQKFPNDANAESASNKLQELQPDVPPSSGRS
substrate cleavage in EBY100 against EBY100^Kex2- (two-colour FACS, FLAG-PE/HA-FITC) [4]: ✓
substrate cleavage in EBY100 against EBY100^Kex2- (two-colour FACS, FLAG-PE/HA-FITC) [5]: ✓
substrate cleavage in EBY100 against EBY100^Kex2- (two-colour FACS) [6]: All three substrates exhibited cleavage in EBY100 and non-cleavage in EBY100^Kex2-
substrate cleavage in EBY100 against EBY100^Kex2- (two-colour FACS, FLAG-PE/HA-FITC) [7]: ✓
substrate cleavage in EBY100 against EBY100^Kex2- (two-colour FACS) [8]: All three substrates exhibited cleavage in EBY100 and non-cleavage in EBY100^Kex2-
substrate cleavage in EBY100 against EBY100^Kex2- (RRRRR substrate): the RRRRR was also found to be only cleaved in the EBY100 and not in the EBY100^Kex2-
substrate cleavage in EBY100 against EBY100^Kex2- (two-colour FACS) [9]: efficient cleavage in the EBY100 and non-cleavage in the EBY100^Kex2- strain
substrate cleavage in EBY100 against EBY100^Kex2- (two-colour FACS, FLAG-PE/HA-FITC) [10]: ✓
substrate cleavage in EBY100 against EBY100^Kex2- (two-colour FACS, FLAG-PE/HA-FITC) [11]: ✓
substrate cleavage in EBY100 against EBY100^Kex2- (two-colour FACS, FLAG-PE/HA-FITC) [12]: ✓
substrate cleavage in EBY100 against EBY100^Kex2- (two-colour FACS, FLAG-PE/HA-FITC) [13]: ✓
substrate cleavage in EBY100 against EBY100^Kex2- (two-colour FACS, FLAG-PE/HA-FITC) [14]: ✓
substrate cleavage in EBY100 against EBY100^Kex2- (two-colour FACS, FLAG-PE/HA-FITC) [15]: ✓
substrate cleavage in EBY100 against EBY100^Kex2- (two-colour FACS) [16]: All three substrates exhibited cleavage in EBY100 and non-cleavage in EBY100^Kex2-
substrate cleavage in EBY100 against EBY100^Kex2- (two-colour FACS, FLAG-PE/HA-FITC) [17]: ✓
substrate cleavage in EBY100 against EBY100^Kex2- (two-colour FACS, FLAG-PE/HA-FITC) [18]: ✓
substrate cleavage in EBY100 against EBY100^Kex2- (two-colour FACS, FLAG-PE/HA-FITC) [19]: ✓
substrate cleavage in EBY100 against EBY100^Kex2- (two-colour FACS, FLAG-PE/HA-FITC) [20]: ✓
substrate cleavage in EBY100 against EBY100^Kex2- (two-colour FACS, FLAG-PE/HA-FITC) [21]: ✓
substrate cleavage in EBY100 against EBY100^Kex2- (two-colour FACS, FLAG-PE/HA-FITC) [22]: ✓
